2 molecules from article PMC8602292, “Acyl carrier protein promotes MukBEF action in Escherichia coli chromosome organization-segregation” (Nature Communications, 2021) can be followed below.

The assay deals with T1, MukB^K1114E (Escherichia coli, UniProt P22523 1-1486, K1114E).
T1 construct: E. coli MukB with K1114E; Mutant of the whole MukB-His as far as the text tells; source: E. coli FL01 (mukB 3xFLAG C3013I), purified (TALON, HiTrap Heparin, Superdex 200); not shown: His tag, C-terminal, kept
T1 sequence (looked up): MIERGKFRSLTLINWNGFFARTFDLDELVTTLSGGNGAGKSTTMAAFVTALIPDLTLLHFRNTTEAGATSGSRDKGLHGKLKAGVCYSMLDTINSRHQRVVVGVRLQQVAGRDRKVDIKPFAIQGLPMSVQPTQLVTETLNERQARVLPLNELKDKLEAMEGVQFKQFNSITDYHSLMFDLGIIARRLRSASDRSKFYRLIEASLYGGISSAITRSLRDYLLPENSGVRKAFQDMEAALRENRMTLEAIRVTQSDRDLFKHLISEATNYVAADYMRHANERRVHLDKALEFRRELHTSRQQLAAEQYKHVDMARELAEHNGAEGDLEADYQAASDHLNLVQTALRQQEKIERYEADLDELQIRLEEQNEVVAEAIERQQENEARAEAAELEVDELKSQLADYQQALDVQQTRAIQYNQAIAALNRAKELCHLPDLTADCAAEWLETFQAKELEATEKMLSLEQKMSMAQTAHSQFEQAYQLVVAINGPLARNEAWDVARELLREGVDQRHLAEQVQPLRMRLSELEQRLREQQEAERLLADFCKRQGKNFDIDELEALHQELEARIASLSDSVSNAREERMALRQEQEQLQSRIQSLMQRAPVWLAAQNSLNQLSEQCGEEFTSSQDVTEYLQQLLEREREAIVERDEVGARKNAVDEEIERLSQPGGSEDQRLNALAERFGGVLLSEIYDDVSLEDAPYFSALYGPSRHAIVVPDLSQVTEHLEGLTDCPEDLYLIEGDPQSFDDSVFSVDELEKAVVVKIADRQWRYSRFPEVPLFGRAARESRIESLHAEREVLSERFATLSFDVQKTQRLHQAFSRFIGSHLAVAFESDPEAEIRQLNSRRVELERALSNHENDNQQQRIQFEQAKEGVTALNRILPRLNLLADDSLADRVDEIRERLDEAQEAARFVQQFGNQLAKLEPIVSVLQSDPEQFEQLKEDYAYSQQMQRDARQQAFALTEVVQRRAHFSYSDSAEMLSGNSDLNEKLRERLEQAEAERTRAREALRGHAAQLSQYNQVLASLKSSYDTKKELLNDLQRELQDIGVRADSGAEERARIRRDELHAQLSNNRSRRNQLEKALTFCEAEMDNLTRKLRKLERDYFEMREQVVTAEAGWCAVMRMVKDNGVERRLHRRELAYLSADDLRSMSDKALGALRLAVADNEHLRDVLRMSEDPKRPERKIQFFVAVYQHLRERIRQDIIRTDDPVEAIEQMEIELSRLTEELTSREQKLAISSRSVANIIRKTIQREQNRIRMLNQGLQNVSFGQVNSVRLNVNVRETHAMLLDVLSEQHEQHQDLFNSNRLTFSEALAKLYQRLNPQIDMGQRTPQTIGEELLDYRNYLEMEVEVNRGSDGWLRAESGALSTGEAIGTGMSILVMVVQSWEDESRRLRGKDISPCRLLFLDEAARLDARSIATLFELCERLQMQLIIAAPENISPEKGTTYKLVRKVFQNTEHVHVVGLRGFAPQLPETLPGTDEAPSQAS
Briefly: native gel or EMSA; BN-PAGE; MukB or MukB^HN (0-4.5 μM) with MukF (1.5 μM), MukE (3 μM) and AcpP as indicated or none; 1 mM DTT, 1 mM MgCl2, 30 min at 22 °C; 3-12% native Bis-Tris gels; AMPPNP in some samples. Particulars: both partners purified.

B1: MukE (MukE-His) (natural protein, Escherichia coli, UniProt P22524 1-234, looked up)
chain: MSSTNIEQVMPVKLAQALANPLFPALDSALRSGRHIGLDELDNHAFLMDFQEYLEEFYARYNVELIRAPEGFFYLRPRSTTLIPRSVLSELDMMVGKILCYLYLSPERLANEGIFTQQELYDELLTLADEAKLLKLVNNRSTGSDVDRQKLQEKVRSSLNRLRRLGMVWFMGHDSSKFRITESVFRFGADVRAGDDPREAQRRLIRDGEAMPIENHLQLNDETEENQPDSGEEE
notes: MukE, the KITE protein of Escherichia coli MukBEF; The end of the tag is read from the printed name 'MukE-His'; also called KITE protein MukE; source: E. coli C3013I (NEB), pET vector, purified (TALON, HiTrap DEAE FF, Superdex 200)
With B1, the binding result is on record as “binds”.

B2: MukF (His-MukF) (natural protein, Escherichia coli, UniProt P60293 1-440, looked up)
chain: MSEFSQTVPELVAWARKNDFSISLPVDRLSFLLAVATLNGERLDGEMSEGELVDAFRHVSDAFEQTSETIGVRANNAINDMVRQRLLNRFTSEQAEGNAIYRLTPLGIGITDYYIRQREFSTLRLSMQLSIVAGELKRAADAAEEGGDEFHWHRNVYAPLKYSVAEIFDSIDLTQRLMDEQQQQVKDDIAQLLNKDWRAAISSCELLLSETSGTLRELQDTLEAAGDKLQANLLRIQDATMTHDDLHFVDRLVFDLQSKLDRIISWGQQSIDLWIGYDRHVHKFIRTAIDMDKNRVFAQRLRQSVQTYFDEPWALTYANADRLLDMRDEEMALRDEEVTGELPEDLEYEEFNEIREQLAAIIEEQLAVYKTRQVPLDLGLVVREYLSQYPRARHFDVARIVIDQAVRLGVAQADFTGLPAKWQPINDYGAKVQAHVIDKY
notes: MukF, the kleisin of Escherichia coli MukBEF; The end of the tag is read from the printed name 'His-MukF'; also called kleisin MukF; source: E. coli C3013I (NEB), pET vector, purified (TALON, HiTrap DEAE FF, Superdex 200)
As for B2, the binding result is on record as “binds”.
